# Measurements taken from the DeepSol protein solubility set.
# Test: soluble on expression in E. coli; label from the status in PepcDB or PDB records
row,Sequence,soluble on expression in E. coli
1,MKVMECQTYEELSQIAARITADTIKEKPDAVLGLATGGTPEGTYRQLIRLHQTENLSFQNITTVNLDEYAGLSSDDPNSYHFYMNDRFFQHIDSKPSRHFIPNGNADDLEAECRRYEQLVDSLGDTDIQLLGIGRNGHIGFNEPGTSFKSRTHVVTLNEQTRQANARYFPSIDSVPKKALTMGIQTILSSKRILLLISGKSKAEAVRKLLEGNISEDFPASALHLHSDVTVLIDREAASLRP,soluble
2,MKVRASVKRICDKCKVIRRHGRVYVICENPKHKQRQG,soluble
3,MKVSTKDKIIESAVMLFNQKGFSGTSVREIAKSADVNVAHISYYFKGKGGLMEHLVSEFYEGYSKTLETAASNISTQSTQEQLLQLVFDILSYQHNHRQLTRFVYREVTIDSTLIREIMSTYLMKEKYIFQLIIEEGEKQREYLTLPLPHFILQLKSLLMMPYLQPQYISEVLYMQPHEPYFYKMYFEEIKIWIRSVFRTGDVALTN,not soluble
4,MKVTDVRLRKIQTDGRMKALVSITLDEAFVIHDLRVIEGNSGLFVAMPSKRTPDGEFRDIAHPINSDMRQEIQDAVMKVYDETDEVIPDKNATSDNEESDEA,soluble
5,MKWGFRWYGAAGDAIPLKHIRQIPGITGVVGTLLNKLPGDVWTVAEIQALKQSVEQEGLALLGIESVAIHDAIKAGTDQRDHYIDNYRQTLRNLGKCGISLVCYSFKPIFGWAKTDLAYENEDGSLSLLFDQAVVENMQPEDMYQLIHSQSKGFRLPGWEEERLQQFQELKAMYAGVTEEDLVENLRYFLERVIPVCEEENIKMGIHPDDPPWEIFGLPRITKNLADLKRILSLVDSPANGITFCTGSLGADPTNDLPTMIREIGHRINFVHFRNVKYLGEHRFEETAHPSVAGSLDMAELMQALVDVGYEGVIRPDHGRAIWDEKAMPGYGLYDRAMGLTYIQGLYEATKAKQNRKLEHHHHHH,soluble
6,MKWYTKYLQVYEKPFSEAPQEIVEEVRNKLKLLQSDNPLVTVSLIGYNEEKHLLASLWSLSEMKCKYPIEIIGTDNDSKDQTATIYEATGIPYVIEHQHSCGHARLCGLKRAKGKYHINIDSDTMYPPHYVETMVDALERPGIVAVSSLWSYIPDKEHSWVGLKIYEFIRDIHLWIQSIKRPELSVRGLVFAYRTDYARQVGIRTDIRRGEDGSLALRLKEYGNIYFIRKRKARAITGYGTISADGSLFNSFKVRAIYALKNIGRVFTRKKEYKDEDDNLIKS,not soluble
7,MKYEVVITSGNSNQAPIGAFFKGDFVTLHLYGGSHTFENLQKDGFYILNTCSPYLIAKSVLDDAGDYEYLDNDGIKIPYLKDSYKIELIEIKSRKIVETKNEFGSSKLMIVEGKPIFEKILNCNTSAYNRADGAVVEMAVLYSRKNMISKEEINDEITRLMKIIKKVGSKNHIELAKKLGVLEHHHHHH,not soluble
8,MKYFLPLDVSLASAYLKATMSFKDPPTLQQLARRSLLKDEALTISALLNLPVQLFPPLFKDAFTSRQRKILSLMVAAWPFPVLPVGALGGIDHLETLKAVLDGLDLLMSQKDRPRWNLQVLDLGNAHQDFWDGWAGLLHEVCSQDVFGKNQPVGNHPIPGGKQTITIKMNLSLKYCRHSKYLNYLHWWAEQRKDGIQVICEKLEFTGPHSSIQELAIKSIHWDIYNLALIASCLGQMKNLQKLILMNIRRPPDLADLQEAHIVTEIFSEFSKLHKVHYLHVNNVYFLKERLDQMLRCFERPLETLAITHCRLSELDMRYLSQCPSIHQLKYLDMSYTTFKPSSHRFLGSLLERLTATLQTLKLECFHLTDFQIRDLLPGLSQCSQLTEVDIAMNEFSVVSLKKLLKHTANLTQLTLEKYPAPVEVYDDGHSVISDRFVQLCSELMNTLKGVRQAKQVYFVSMPCLRNYEFLIYNLKGLDSSEQLRRRGLSWALINGEQVSRDSLQL,not soluble
9,MKYKILLKGKQYFATINLFDGRIAMDVQVQFMAELSQLIDKLSFLSRDQLKIALKGYKPAEVHTIEFIGEHSETNVTAIASALYVTRGAVSKITKRLISRGLIVRYQKPDNQKEVYFKLTAQGQEVFEIHKKFTNYFMQRDEPIFRDSPDAVATTLAFLHQYNAFLDQKLTIKK,not soluble
10,MKYQQLENLESGWKWKYLVKKHREGELITRYVEASAAQEAVNLLLALENEPVRVNVWIDRHMNPALLNRMKQTIRARRKRHFNAEHQHTRKKSIDLEFMVWQRLAGLAQRRGKTLSETIVQLIEDAEHKEKYATQMTTLKQDLQALLGKK,not soluble
11,MKYQVLLYYKYTTIEDPEAFAKEHLAFCKSLNLKGRILVATEGINGTLSGTVEETEKYMEAMQADERFKDTFFKIDPAEEMAFRKMFVRPRSELVALNLEEDVDPLETTGKYLEPAEFKEALLDEDTVVIDARNDYEYDLGHFRGAVRPDIRSFRELPQWIRENKEKFMDKKIVTYCTGGIRCEKFSGWLLKEGFEDVAQLHGGIANYGKNPETRGELWDGKMYVFDDRISVEINHVDKKVIGKDWFDGTPCERYINCANPECNRQILTSEENEHKHLGGCSLECSQHPANRYVKKHNLTEAEVAERLALLEAVEV,not soluble
12,MKYRIVRIELKSDDEVTLYLKSASRKPGVMAKADFSDPVKVIEFGLQMGMDLARRIEELMQFDAFLTVPYDYYSMNELKVGDVVEVEVRLAER,not soluble
13,MLAGHLFAGVGEDVRLFKGITMTYGHNIELGDNAVVHDGVHLDDRGELVVGARASVSNGAHLYTHDHDVVDQTDVTNYRTEIGADARVTQGALVRAGVRVGENALVGSRSVVQGDVPAHHIAVGSPAESVRVKPGWLEHHHHHH,not soluble
14,MLAKRIIPCLDVDKGRVVKGVKFLNLRDAGDPVEVAKRYEEEGADELVFLDITASAEDREIMIDVVKKVAETVFMPFTVGGGIRSLEDMRRLLEAGADKISINTAAVKNPNLIYEGAKRFGSQCIVVAIDAKRKGNSWEVYIHGGRTPTGLDAVEWAKKVESLGAGEILLTSMDRDGTKDGYDIELNRAISEAVNIPVIASGGAGKKEHFYEVFSKTKVEAALAASVFHFREISIPELKEYLLERGINVRPLD,soluble
15,MLAKRSIALTAATLLREPILRREDIADSLLARDILADARQQATQILALEQEKAEHLQQQALAQFWENANAFLGELQVQREALQEQAMTAVEELLSESLRHLLDDTTLAERARALARNLAASQLNEAVATLSVHPQIADAVAEWLADSRFSEHWQLKRDATIASDSLRLSDANGAFDIAWADLRKGLLGVEPAA,not soluble
16,MLASRRLLPQISSRALSTSPALKSSEISVKEERPYVYNVKLNRPAKLNTFTMDMWREFKKAIDSLADDPKCRSIIISGEGKAFCAGIDIAHGLSDILRIIQDDTIEVGRKGRLVRKFIGEIQDCYTALERCPKPIIASIHSHCLGAGIDLITACDIRVASQDAIFSIREVDVGLAADIGTLNRIQKVVGNDSWTRDVAFTARDFGADEALRFGLISRIYDDRQSLLENSIDMAARIAEKSPIAVQGTKETLNYAREHSTDDSLNFIKTWNMSQLLSTDLLSSAMAVMNKKKATYEDV,not soluble
17,MLDLLVVAPHPDDGELGCGGTLARAKAEGLSTGILDLTRGEMGSKGTPEEREKEVAEASRILGLDFRGNLGFPDGGLADVPEQRLKLAQALRRLRPRVVFAPLEADRHPDHTAASRLAVAAVHLAGLRKAPLEGEPFRVERLFFYPGNHPFAPSFLVKISAFIDQWEAAVLAYRSQFTGEAASETVGPKGVEARKAMRRYWGNYLGVDYAEPFVSPLPVLYVPWSRA,soluble
18,MLDLTTNPIDLTRALVDIESPSHYEKNIADAIEQALHAIDNVEVLRHGNTLVARTHRGLGERVILAGHIDTVPIADNVPSHMEGDVMFGCGTVDMKSGMAVYLHAFATLANHPALAKDLTVVCYEGEEVASEYNGLGHVQAAHPDWLSGDLALLGEPSGAVIEAGCQGTIRLRVTAHGVRAHSARSWLGDNAMHKLAPVITNIAQYHAQEMLVDGCLYHEGLNIVHCESGVATNTIPDEAWMFVNFRFAPNRSVDEALAHMLEVLDLPEGVTYDIDDAVPGARPGLDRPAAAALLEATGGKFRAKYGWTDVSRFSEIGVPAVNFGPGDPAYCHKKDEQCPVSMITEVSRTLVHYLTSTNSQTTGA,not soluble
19,MLDPARSFDIIGDVHGCALTLERLLDALGYKRVAGVWRHPRRQALFLGDIVDRGPRIREALHIVHDMVEAGQAFCIMGNHEYNALGWVTPALPGSGKAYVREHTPRHARLIDETLTQFAQHPGDWHDFVNWFYQLPLFIDAGRFRLVHALEHHHHHH,not soluble
20,MLDQVCQLARNAGDAIMQVYDGAKPMDVVSKADNSPVTAADIAAHTVIMDGLRTLTPDIPVLSEEDPPGWEVRQHWQRYWLVDPLDGTKEFIKRNGEFTVNIALIDHGKPILGVVYAPVMNVMYSAAEGKAWKEECGVRKQIQVRDARPPLVVISRSHADAELKEYLQQLGEHQTTSIGSSLKFCLVAEGQAQLYPRFGPTNIWDTAAGHAVAAAAGAHVHDWQGKPLDYTPRESFLNPGFRVSIY,not soluble
21,MLEANVYDNFNPNYYNISDFSMPNGKKEKRGLPIPKARCQVINYELWETGYLYTSSATLTVSVEVGDIVQILFPEVVPIEEALGKKKKLNLDMVYLVTDVDESNKATLKNYFWAMIESLDVPNAITKTTNFAIIDYLIDPNKNNLMSYGYFFNSSIFAGKATINRKAETSSAHDVAKRIFSKVQFQPTTTIQHAPSETDPRNLLFINFASRNWNRKRITTRVDIKQSVTMDTETIVERSAYNFAVVFVKNKATDDYTDPPKMYIAKNNGDVIDYSTYHGDGTDLPDVRTAKTLFYDRDDHGNPPELSTIKVEISPSTIVTRLIFNQNELLPLYVNDLVDIWYEGKLYSGYIADRVKTEFNDRLIFVESGDKPNVI,soluble
22,MLEEDKIKGMFNPKIWDKTFQDGLKKEIEDSQPYNWGTIHELVNDDLLRAVRKEIETEIHFTKKETDIYRVNQSGDLANLSGLDWDDLSRLPNLFKLRQILYSKQYRDFFGYVTKAGKLSGSKTDMSINTYTKGCHLLTHDDVIGSRRISFILYLPDPDRKWKSHYGGGLRLFPSILPNVPHSDPSAKLVPQFNQIAFFKVLPGFSFHDVEEVKVDKHRLSIQGWYHIPQVGEEGYIPGEEEAWVRNNTSTLAQIESNVLEDFEFPKDERNILSFHEVKHFEKMLKGDAGAKTDNTPKESMTSVISDSVKLSEAEFTYLSQYISPEHLSSKGIEKLQKQFVENSSLQIESFLNDDKSELLKKVIKQKELEQECPYHSKDVKAPWKTAIPPHKARYLYIDGKEYRNFQTEADILEALNNNDLPNFQFTKDAIKIISDASGNSRENNFDAELALIDLAVFHKSTIFKKYLALLTSLCPVSEQILIRRFRPGMDFTLATKCRFNELLKSNPDIIDAVLEGTLCLTPSAGWESGELGGYELYMMDDDEDNKQYLKEDVEDASVYRADDSGDSVLINDPPAWNTFNLVLRDESVLEFVKYVSWSAKSSRWDVKMKWDVKSCDEDGQEDEALEHHHHHH,soluble
23,MLEIVSEELRHYQEQKLIEYRNKNQLAPKGGIVFAGDSLIEFFPLKKAFGSCLPIINRGIAGIDSQWLLRHFSVQITDLEPKHIFLLIGCNDIGLGYDKCHIVKTIVELISQIRSHCVYSQIYLLSLLPVSNNPRYQKTVKIRTNAMIDAINKDLAMIPTVEFINLNTCLKDEKGGLSDENTLDGLHLNFPAYAKLAEIIKSYI,not soluble
24,MLELAILGLLIESPMHGYELRKRLTGLLGAFRAFSYGSLYPALRRMQADGLIAENAAPAGTPVRRARRVYQLTDKGRRRFGELVADTGPHNYTDDGFGVHLAFFNRTPAEARMRILEGRRRQVEERREGLREAVARASSSFDRYTRQLHQLGLESSEREVKWLNELIAAERAAPNPAEQT,not soluble
